This note sets out measurements from patent US20170158755A1 (PROTHENA BIOSCIENCES, published 2017).

In experiment [1] the target is T1, mouse MCAM-Fc fusion protein (mouse; human, UniProt Q8R2Y2 24-563).
T1 construct: extracellular domain; Made in house; also called mMCAM-Fc; 650-conjugated mouse MCAM-Fc; not shown: human IgG1 (Fc part of the fusion)
T1 sequence (looked up): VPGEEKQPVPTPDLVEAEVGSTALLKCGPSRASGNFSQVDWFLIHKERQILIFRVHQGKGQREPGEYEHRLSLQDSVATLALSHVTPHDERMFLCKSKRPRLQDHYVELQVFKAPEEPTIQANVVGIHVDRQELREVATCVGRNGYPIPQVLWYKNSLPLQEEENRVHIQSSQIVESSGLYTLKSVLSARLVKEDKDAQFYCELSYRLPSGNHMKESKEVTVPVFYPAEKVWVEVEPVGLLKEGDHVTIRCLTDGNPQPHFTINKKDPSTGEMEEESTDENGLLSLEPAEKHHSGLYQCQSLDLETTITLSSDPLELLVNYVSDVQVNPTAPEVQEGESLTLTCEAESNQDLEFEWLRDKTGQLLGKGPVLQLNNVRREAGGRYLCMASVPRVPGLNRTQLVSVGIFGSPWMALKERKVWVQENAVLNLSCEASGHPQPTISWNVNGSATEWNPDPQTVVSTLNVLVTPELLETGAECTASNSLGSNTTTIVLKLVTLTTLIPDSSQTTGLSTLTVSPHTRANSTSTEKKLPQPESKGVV
Put plainly: flow cytometry on 293 cells displaying LAMA4 G-domain variants; % binding. From the text: LGde1 has a full-length G domain (i.e., LG1-5) with LG1 deleted, LGde2 has a full-length G domain with LG2 deleted, and LGde3 has a full-length G domain with LG3 deleted. Recombinant MCAM-Fc protein was able to specifically bind 293 cells expressing LAMA4 variants LG1-5, LG1-3, and LGde 1 (LG23), but not 293 cells expressing LAMA 4 variants LG4-5, LGde2 (LG13), or LGde3 (LG12).

For experiment [2], the target named is T2, human MCAM-Fc fusion protein (human, UniProt P43121 24-559).
T2 construct: Made in house by fusing the extracellular domain of human MCAM to human IgG1, produced in CHO cells; also called hMCAM-Fc; not shown: human IgG1 (Fc part of the fusion)
T2 sequence: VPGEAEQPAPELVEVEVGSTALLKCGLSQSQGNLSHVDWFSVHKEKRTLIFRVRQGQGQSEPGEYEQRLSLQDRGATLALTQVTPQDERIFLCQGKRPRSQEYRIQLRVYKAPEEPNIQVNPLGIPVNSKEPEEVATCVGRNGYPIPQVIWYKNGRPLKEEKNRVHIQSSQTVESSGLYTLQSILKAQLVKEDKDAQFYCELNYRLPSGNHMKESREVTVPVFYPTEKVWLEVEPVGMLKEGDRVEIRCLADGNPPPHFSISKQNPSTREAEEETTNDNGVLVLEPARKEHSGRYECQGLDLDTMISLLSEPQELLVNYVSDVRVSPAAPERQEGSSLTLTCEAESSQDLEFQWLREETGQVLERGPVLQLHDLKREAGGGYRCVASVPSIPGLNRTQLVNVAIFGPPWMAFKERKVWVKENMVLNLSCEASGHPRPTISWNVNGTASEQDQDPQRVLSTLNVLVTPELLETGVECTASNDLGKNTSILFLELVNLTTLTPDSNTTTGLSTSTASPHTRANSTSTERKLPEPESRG
The experiment in a line: ELISA, MCAM-Fc captured via goat anti-human Fab. As to the method:
To determine the LAMA4 epitope(s)/domain(s) necessary for MCAM binding, recombinant MCAM-Fc (or Fc control) protein was prebound to plates via goat anti-human Fabs overnight. Truncated recombinant variants of the LAMA4 G domain (and Tau control protein) were assayed for their ability to bind MCAM-Fc protein as described in the Materials and Methods and as shown in FIG. 6. The results are presented in arbitrary units (A.U.) on the y-axis. […] Therefore, the LG1-3 modules of the G domain of LAMA4 mediate LAMA4-MCAM interactions.

B1: human LAMA4 LG4-5 modules displayed on 293 cells (ligand)
chain: RNSHCHLSNSPRAIEHAYQYGGTANSRQEFEHLKGDFGAKSQFSIRLRTRSSHGMIFYVSDQEENDFMTLFLAHGRLVYMFNVGHKKLKIRSQEKYNDGLWHDVIFIRERSSGRLVIDGLRVLEESLPPTEATWKIKGPIYLGGVAPGKAVKNVQINSIYSFSGCLSNLQLNGASITSASQTFSVTPCFEGPMETGTYFSTEGGYVVLDESFNIGLKFEIAFEVRPRSSSGTLVHGHSVNGEYLNVHMKNGQVIVKVNNGIRDFSTSVTPKQSLCDGRWHRITVIRDSNVVQLDVDSEVNHVVGPLNPKPIDHREPVFVGGVPESLLTPRLAPSKPFTGCIRHFVIDGHPVSFSKAALVSGAVSINSCP
notes: pDisplay construct on 293 cells; vector tags and anchor not written here
As to B1, in experiment [1], the binding result is recorded as “no binding”.

B2: His-tagged recombinant LAMA4 G-domain variant with LG modules 4-5 (ligand)
chain: B1 chain
notes: also called LAMA4 variant containing the LG modules 4-5; LG4-5
With B2, in experiment [2], the binding result is reported as “no binding”.
